Our source for the Kd values is article PMC7695167, “Targeting the Interaction between the SH3 Domain of Grb2 and Gab2” (Cells, 2020).

“And” between values parts separate entries of the source, which are not always exact repeats. Equal entries are not always repeated.

This assay concerns the target Gab2 503-524 (Homo sapiens), Q9UQC2.

Sequence of Gab2 503-524 (Homo sapiens), Q9UQC2 (Q9UQC2 503-524): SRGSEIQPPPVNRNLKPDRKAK

B1: Grb2 C-SH3, P62993 (protein)
chain: QQPTYVQALFDFDPQEDGELGFRRGDFIHVMDNSDPNWWKGACHGQTGMFPRNYVTPVNR
Turning to B1, the Kd was 100 µM and 22 µM.
